# Assay results from patent US20100115665A1 (published 2010).
# Target: T1, GroEL homologue from secondary endosymbiotic bacteria of the whitefly Bemisia tabaci (endosymbiotic bacteria of Bemisia tabaci, UniProt C4K477 1-552)
# T1 construct: Chaperonin expressed in planta and assayed in plant sap; also called whitefly GroEL; B. tabaci GroEL
# Experiment: capture of sap of infected GroEL-transgenic N. benthamiana (7 dpi) in anti-GroEL coated tubes; RT-PCR and Western blot with virus-specific antibodies
# Protocol: Transgenic and non-transgenic N. benthamiana plants were mechanically inoculated with GVA and with TMV. Infection was assessed by RT-PCR and by Western blot analyses at 5-7 dpi (FIGS. 12A and 13A). The possible binding of GVA and TMV particles to GroEL in transgenic N. benthamiana plants was assessed as described above. Sap of infected transgenic plants at 7 dpi was incubated in PCR tubes coated with anti-GroEL antibody. Binding of GroEL-virus complexes to the coated tubes was assayed by RT-PCR and with virus-specific antibodies.
binder,measurement,value
"Grapevine virus A (GVA) (other, The partner in the assay is the whole filamentous virus particle in plant sap) MAHYAKRVEIRAIIEELVLAKAQPTDDASESGYDRNMYLNTLFGYIALVGTSKKAIHYGEVDIVGPKASKKTGIDPRGKMVVSELVGRMRTLSVAVSEGPVKGATLRQMCEPFAQNAYDFLVVMAEMGTYSQLATKMTRSGFKEPQVMFDFASGLDLKALTLQEATVIQAMHSRLFRTEGAKGVFNAQSSIGEQAVEI",binding result,no binding
